The values that follow come from patent US20100022445A1 (BAXALTA, published 2010).

The target in one test is HERG channel (UniProt Q12809 1-1159, limits assumed). Kind of test: cell-based or functional assay.
The next test has as its target mouse plasma. Kind of test: equilibrium dialysis (HTD-96, 12-14 kD cut-off), 5 µM A01 in undiluted mouse plasma, 6 h at 37 °C, LC/MS/MS.
The target in another test is human plasma. Put plainly: equilibrium dialysis (HTD-96, 12-14 kD cut-off), 5 µM A01 in undiluted human plasma, 6 h at 37 °C, LC/MS/MS.

*1 amine or outer side, *2 acyl side, *3 side chain or, on linkers, in order; H or OH if unused. Where no end group is shown, it is not given here. [ ]: non-standard residue; d: D form. NH(CH2)3(OCH2CH2)2O(CH2)3NH = C(CN[*:1])COCCOCCOCCCN[*:2]

HERG channel, sequence (Q12809 whole entry): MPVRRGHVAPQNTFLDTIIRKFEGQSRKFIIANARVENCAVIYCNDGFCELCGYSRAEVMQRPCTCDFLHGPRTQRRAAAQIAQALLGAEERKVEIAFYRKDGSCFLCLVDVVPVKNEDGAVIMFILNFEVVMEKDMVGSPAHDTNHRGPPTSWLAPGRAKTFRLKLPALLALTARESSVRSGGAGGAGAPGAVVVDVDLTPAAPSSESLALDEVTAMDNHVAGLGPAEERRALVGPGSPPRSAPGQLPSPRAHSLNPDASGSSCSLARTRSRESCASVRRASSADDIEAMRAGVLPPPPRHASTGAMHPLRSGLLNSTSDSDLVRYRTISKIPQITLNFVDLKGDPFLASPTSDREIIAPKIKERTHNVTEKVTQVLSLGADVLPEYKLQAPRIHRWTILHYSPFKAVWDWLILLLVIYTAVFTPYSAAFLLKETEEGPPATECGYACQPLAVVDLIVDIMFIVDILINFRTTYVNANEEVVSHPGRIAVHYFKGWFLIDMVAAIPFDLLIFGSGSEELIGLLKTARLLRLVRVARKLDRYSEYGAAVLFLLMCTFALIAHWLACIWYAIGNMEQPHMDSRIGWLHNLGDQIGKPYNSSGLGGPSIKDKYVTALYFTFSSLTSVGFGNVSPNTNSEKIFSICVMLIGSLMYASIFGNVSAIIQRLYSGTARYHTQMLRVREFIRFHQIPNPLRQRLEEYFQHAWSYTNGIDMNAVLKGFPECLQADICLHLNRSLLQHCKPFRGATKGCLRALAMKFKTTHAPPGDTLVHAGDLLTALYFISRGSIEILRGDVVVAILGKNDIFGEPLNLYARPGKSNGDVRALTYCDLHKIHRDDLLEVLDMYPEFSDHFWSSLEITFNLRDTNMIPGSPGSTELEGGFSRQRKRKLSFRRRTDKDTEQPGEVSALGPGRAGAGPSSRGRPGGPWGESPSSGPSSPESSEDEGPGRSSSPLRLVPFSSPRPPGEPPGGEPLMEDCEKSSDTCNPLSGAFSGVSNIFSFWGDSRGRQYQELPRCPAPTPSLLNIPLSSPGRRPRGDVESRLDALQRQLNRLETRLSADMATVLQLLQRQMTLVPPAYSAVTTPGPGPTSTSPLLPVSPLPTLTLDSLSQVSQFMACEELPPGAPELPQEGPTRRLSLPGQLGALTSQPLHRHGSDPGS

Turning to Ac-WDLYFEIVW-NH2 [A05 (Ac-WDLYFEIVW-NH2)], the “HERG inhibition patch-clamp (% Inhibition of Tail Current at 1 µM)” value with HERG channel turned out to be 14.5%.
As for Ac-WDLYFEIVWE [A06 (Ac-WDLYFEIVWE)], the “HERG inhibition Rb+ efflux (% Inhibition at 10 µM)” value with HERG channel is -6.4%.
Consider Ac-WDLYFEIVW[NH(CH2)3(OCH2CH2)2O(CH2)3NH]E [A07 (Ac-WDLYFEIVW-ttds-E)], for which the “HERG inhibition Rb+ efflux (% Inhibition at 10 µM)” value with HERG channel was -3.4%.
The same measure, in the same setting: the figure for Ac-PMKFDVWDLYFEIVW-NH2 [A02 (Ac-PMKFDVWDLYFEIVW-NH2)] is -3.3%.
Ac-RMKFDVWDLYFEIVW-NH2 [A01 (Ac-RMKFDVWDLYFEIVW-NH2)]: in the test with HERG channel, the “HERG inhibition patch-clamp (% Inhibition of Tail Current at 1 µM)” value is 16.5%.
As for ERMEFDVWDLYFEIVW-NH2 [A09 (ERMEFDVWDLYFEIVW-NH2)], the “HERG inhibition Rb+ efflux (% Inhibition at 10 µM)” value with HERG channel was -1.6%.

B1: B03 (Ac-cimfwydeye-NH2) (peptide)
peptide: Ac-[dC][dI][dM][dF][dW][dY][dD][dE][dY][dE]-NH2
SMILES: CC[C@@H](C)[C@@H](NC(=O)[C@@H](CS)NC(C)=O)C(=O)N[C@H](CCSC)C(=O)N[C@H](Cc1ccccc1)C(=O)N[C@H](Cc1c[nH]c2ccccc12)C(=O)N[C@H](Cc1ccc(O)cc1)C(=O)N[C@H](CC(=O)O)C(=O)N[C@H](CCC(=O)O)C(=O)N[C@H](Cc1ccc(O)cc1)C(=O)N[C@H](CCC(=O)O)C(N)=O
Consider B1, for which, in the test with HERG channel, the “HERG inhibition Rb+ efflux (% Inhibition at 10 µM)” value is -2.1% and the “HERG inhibition patch-clamp (% Inhibition of Tail Current at 1 µM)” value was determined as 84.5%.
As to Ac-RMKFDVWDLYFEIVW-NH2 [A01 (Ac-…-NH2)], the results for the Average % Bound in the test with mouse plasma and in the test with human plasma were > 99.2% and > 98.3%, respectively.
In the case of PEG5000-RMKFDVWDLYFEIVW-NH2 [A16 (PEG5000-RMKFDVWDLYFEIVW-NH2)], the “HERG inhibition patch-clamp (% Inhibition of Tail Current at 1 µM)” value in the test with HERG channel turned out to be 22.2%.
